According to patent US20180355338A1:

How the values were obtained:
[1] = molecular target: TY-145 protease variant S173P, S175P, F180Y, R224D (Bacillus sp. TY-145); assay: Ki fitted from Suc-AAPF-pNA activity; Model B detergent; ratio against m3 (without R224D)
[2] = molecular target: TY-145 protease variant S173P, S175P, I178F, F180Y (Bacillus sp. TY-145); assay: Ki fitted from Suc-AAPF-pNA activity; Model B detergent; ratio against m3 (without I178F)
[3] = molecular target: TY-145 protease variant S27K, S171D, S173P, G174R, S175P, G182A, L184F, Q198E, N199K, R224G, T297P (Bacillus sp. TY-145); assay: Ki fitted from Suc-AAPF-pNA activity; Model B detergent; ratio against m12 (without R224G)
[4] = molecular target: TY-145 protease variant S114Q, S173P, S175P, F180Y (Bacillus sp. TY-145); assay: Ki fitted from Suc-AAPF-pNA activity at 8 inhibitor concentrations; Model B detergent; ratio against m3 (without S114Q)
[5] = molecular target: TY-145 protease variant S27K, S171N, S173P, G174R, S175P, F180Y, L184W, Q198E, T297P (Bacillus sp. TY-145); assay: Ki fitted from Suc-AAPF-pNA activity; Model B detergent; ratio against m4 (without L184W)
[6] = molecular target: TY-145 protease variant S27K, Q70N, G107N, I121V, E127Q, S173P, S175P, F180Y, L184F, Q198E, T297P (Bacillus sp. TY-145); assay: Ki fitted from Suc-AAPF-pNA activity; Model B detergent; ratio against m7 (without L184F)
[7] = molecular target: TY-145 protease variant K146W, S173P, S175P, F180Y (Bacillus sp. TY-145); assay: Ki fitted from Suc-AAPF-pNA activity; Tris buffer pH 8; ratio against m3 (without K146W)
[8] = molecular target: TY-145 protease variant S173P, S175P, F180Y, L184Y (Bacillus sp. TY-145); assay: Ki fitted from Suc-AAPF-pNA activity; Model B detergent; ratio against m3 (without L184Y)

## Z-Gly-Ala-NHCH(CH2C6H4pOH)C(OH)(SO3Na)-H, wherein Z is benzyloxycarbonyl (peptide)
[1]
  relative Ki mutation: 0.36
[2]
  relative Ki mutation: 0.5
[3]
  relative Ki mutation: 0.49
[4]
  relative Ki mutation: 0.63
[5]
  relative Ki mutation: 0.57
[6]
  relative Ki mutation: 0.37
[7]
  relative Ki mutation: 0.16
[8]
  relative Ki mutation: 0.24
